Experiments:
[1] = biological target: Rab8a phosphorylated at Thr72 (pRab8a) (human) (UniProt P61006)
[2] = biological target: T1, pThr72-Rab8a switch 2 phosphopeptide (residues 65-79) (human)
T1 sequence (peptide, phosphothreonine (T*) at Thr72): AGQERFRTITTAYYR

[3] = biological target: T2, pThr73-Rab10 switch 2 phosphopeptide (human)
T2 sequence (peptide, phosphothreonine (T*) at Thr73): AGQERFHTITTSYYR

[4] = biological target: T3, Rab8a phosphorylated at Thr72 (pRab8a) (human), P61006; experiment: cross-linking; DSBU 9.375 mM, 10 min at RT; 35 µM Rab8a and 28 µM PPM1H pre-incubated 1 h at 30°C in 40 mM HEPES pH 7.5, 150 mM NaCl, 2 mM MgCl2; SDS-PAGE, bands digested and read by LC MS/MS
T3 chain: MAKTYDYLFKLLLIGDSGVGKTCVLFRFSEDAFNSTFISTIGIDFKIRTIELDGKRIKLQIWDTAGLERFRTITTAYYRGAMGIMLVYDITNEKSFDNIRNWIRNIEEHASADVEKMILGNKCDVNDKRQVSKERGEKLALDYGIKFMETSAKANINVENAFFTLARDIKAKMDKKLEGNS

[5] = biological target: the molecule itself; experiment: crystal structure; vapour diffusion crystals, space group P212121, two molecules of PPM1H in the asymmetric unit; with Mg2+ (7kpr, 7l4j, 7l4i) or Mn2+ (7n0z)
[6] = biological target: the molecule itself; experiment: SEC-MALS; His6-tagged proteins injected at 2 mg/ml (100 μl) into a Superdex 200 column; DAWN Heleos and Optilab TrEX detectors

B1: His6-SUMO-PPM1H[K88A], full length (enzyme)
chain: MLTRVKSAVANFMGGIMAGSSGSEHGGGSCGGSDLPLRFPYGRPEFLGLSQDEVECSADHIARPILILKETRRLPWATGYAEVINAGASTHNEDQASCEVLTVKKKAGAVTSTPNRNSSKRRSSLPNGEGLQLKENSESEGVSCHYWSLFDGHAGSGAAVVASRLLQHHITEQLQDIVDILKNSAVLPPTCLGEEPENTPANSRTLTRAASLRGGVGAPGSPSTPPTRFFTEKKIPHECLVIGALESAFKEMDLQIERERSSYNISGGCTALIVICLLGKLYVANAGDSRAIIIRNGEIIPMSSEFTPETERQRLQYLAFMQPHLLGNEFTHLEFPRRVQRKELGKKMLYRDFNMTGWAYKTIEDEDLKFPLIYGEGKKARVMATIGVTRGLGDHDLKVHDSNIYIKPFLSSAPEVRIYDLSKYDHGSDDVLILATDGLWDVLSNEEVAEAITQFLPNCDPDDPHRYTLAAQDLVMRARGVLKDRGWRISNDRLGSGDDISVYVIPLIHGNKLS
initial rate of phosphate release (malachite green time course), 16 μM pThr72-Rab8a protein (GTPγS), against wild-type PPM1H (fold reduction) [1]: > 20
initial rate of phosphate release (malachite green time course), 32 μM pThr72-Rab8a peptide, against wild-type PPM1H (fold reduction) [2]: > 20
initial rate of phosphate release (malachite green time course), 32 μM pThr73-Rab10 peptide, against wild-type PPM1H (fold reduction) [3]: > 20

B2: His6-SUMO-PPM1H[R338A], full length (enzyme)
chain: MLTRVKSAVANFMGGIMAGSSGSEHGGGSCGGSDLPLRFPYGRPEFLGLSQDEVECSADHIARPILILKETRRLPWATGYAEVINAGKSTHNEDQASCEVLTVKKKAGAVTSTPNRNSSKRRSSLPNGEGLQLKENSESEGVSCHYWSLFDGHAGSGAAVVASRLLQHHITEQLQDIVDILKNSAVLPPTCLGEEPENTPANSRTLTRAASLRGGVGAPGSPSTPPTRFFTEKKIPHECLVIGALESAFKEMDLQIERERSSYNISGGCTALIVICLLGKLYVANAGDSRAIIIRNGEIIPMSSEFTPETERQRLQYLAFMQPHLLGNEFTHLEFPRAVQRKELGKKMLYRDFNMTGWAYKTIEDEDLKFPLIYGEGKKARVMATIGVTRGLGDHDLKVHDSNIYIKPFLSSAPEVRIYDLSKYDHGSDDVLILATDGLWDVLSNEEVAEAITQFLPNCDPDDPHRYTLAAQDLVMRARGVLKDRGWRISNDRLGSGDDISVYVIPLIHGNKLS
initial activity of phosphate release (malachite green time course), 16 μM pThr72-Rab8a protein (GTPγS), against wild-type PPM1H (fold reduction) [1]: 2

B3: Recombinant PPM1H[D288A] used for DSBU cross-linking, Q9ULR3 1-514 (enzyme)
chain: SDLPLRFPYGRPEFLGLSQDEVECSADHIARPILILKETRRLPWATGYAEVINAGKSTHNEDQASCEVLTVKKKAGAVTSTPNRNSSKRRSSLPNGEGLQLKENSESEGVSCHYWSLFDGHAGSGAAVVASRLLQHHITEQLQDIVDILKNSAVLPPTCLGEEPENTPANSRTLTRAASLRGGVGAPGSPSTPPTRFFTEKKIPHECLVIGALESAFKEMDLQIERERSSYNISGGCTALIVICLLGKLYVANAGASRAIIIRNGEIIPMSSEFTPETERQRLQYLAFMQPHLLGNEFTHLEFPRRVQRKELGKKMLYRDFNMTGWAYKTIEDEDLKFPLIYGEGKKARVMATIGVTRGLGDHDLKVHDSNIYIKPFLSSAPEVRIYDLSKYDHGSDDVLILATDGLWDVLSNEEVAEAITQFLPNCDPDDPHRYTLAAQDLVMRARGVLKDRGWRISNDRLGSGDDISVYVIPLIHGNKLS
modifications: not checked
stoichiometry N (PPM1H per pRab8a (2:2)) [4]: 1

B4: PPM1H^DA (residues 33-514, D288A), crystallised form (enzyme, human, UniProt Q9ULR3 33-514, looked up)
chain: SDLPLRFPYGRPEFLGLSQDEVECSADHIARPILILKETRRLPWATGYAEVINAGKSTHNEDQASCEVLTVKKKAGAVTSTPNRNSSKRRSSLPNGEGLQLKENSESEGVSCHYWSLFDGHAGSGAAVVASRLLQHHITEQLQDIVDILKNSAVLPPTCLGEEPENTPANSRTLTRAASLRGGVGAPGSPSTPPTRFFTEKKIPHECLVIGALESAFKEMDLQIERERSSYNISGGCTALIVICLLGKLYVANAGASRAIIIRNGEIIPMSSEFTPETERQRLQYLAFMQPHLLGNEFTHLEFPRRVQRKELGKKMLYRDFNMTGWAYKTIEDEDLKFPLIYGEGKKARVMATIGVTRGLGDHDLKVHDSNIYIKPFLSSAPEVRIYDLSKYDHGSDDVLILATDGLWDVLSNEEVAEAITQFLPNCDPDDPHRYTLAAQDLVMRARGVLKDRGWRISNDRLGSGDDISVYVIPLIHGNKLS
notes: PPM1H phosphatase, human, residues 33-514 with D288A (substrate-trapping mutant); Two molecules in the asymmetric unit; two Mg2+ ions at the active site; also called pNIC28-Bsa4-PPM1H^33-514 D288A; source: E. coli, purified (nickel agarose, TEV cleavage, second Ni column, Superdex 200)
binding result [5]: binds

B5: PPM1H^DA-LD (residues 33-514, D288A, loop 188-226 replaced by GSGS, C56A), crystallised form (enzyme, human)
chain: SDLPLRFPYGRPEFLGLSQDEVEASADHIARPILILKETRRLPWATGYAEVINAGKSTHNEDQASCEVLTVKKKAGAVTSTPNRNSSKRRSSLPNGEGLQLKENSESEGVSCHYWSLFDGHAGSGAAVVASRLLQHHITEQLQDIVDILKNSAVLGSGSTRFFTEKKIPHECLVIGALESAFKEMDLQIERERSSYNISGGCTALIVICLLGKLYVANAGASRAIIIRNGEIIPMSSEFTPETERQRLQYLAFMQPHLLGNEFTHLEFPRRVQRKELGKKMLYRDFNMTGWAYKTIEDEDLKFPLIYGEGKKARVMATIGVTRGLGDHDLKVHDSNIYIKPFLSSAPEVRIYDLSKYDHGSDDVLILATDGLWDVLSNEEVAEAITQFLPNCDPDDPHRYTLAAQDLVMRARGVLKDRGWRISNDRLGSGDDISVYVIPLIHGNKLS
notes: PPM1H phosphatase, human, residues 33-187 with C56A; short linker that replaces the loop 188-226; PPM1H phosphatase, human, residues 227-514 with D288A; also called pET28a(+)-PPM1H^D288A LoopDEL; source: E. coli, purified (nickel agarose, TEV cleavage, second Ni column, Superdex 200); not shown: His6, N-terminal, cleaved
binding result [5]: binds

B6: His6-tagged PPM1H^WT-LD (residues 33-514, loop 188-226 replaced by GSGS, C56A) (enzyme, human)
chain: SDLPLRFPYGRPEFLGLSQDEVEASADHIARPILILKETRRLPWATGYAEVINAGKSTHNEDQASCEVLTVKKKAGAVTSTPNRNSSKRRSSLPNGEGLQLKENSESEGVSCHYWSLFDGHAGSGAAVVASRLLQHHITEQLQDIVDILKNSAVLGSGSTRFFTEKKIPHECLVIGALESAFKEMDLQIERERSSYNISGGCTALIVICLLGKLYVANAGDSRAIIIRNGEIIPMSSEFTPETERQRLQYLAFMQPHLLGNEFTHLEFPRRVQRKELGKKMLYRDFNMTGWAYKTIEDEDLKFPLIYGEGKKARVMATIGVTRGLGDHDLKVHDSNIYIKPFLSSAPEVRIYDLSKYDHGSDDVLILATDGLWDVLSNEEVAEAITQFLPNCDPDDPHRYTLAAQDLVMRARGVLKDRGWRISNDRLGSGDDISVYVIPLIHGNKLS
notes: PPM1H phosphatase, human, residues 33-187 with C56A; short linker that replaces the loop 188-226; PPM1H phosphatase, human, residues 227-514; Same construct as m2 but with the His6 tag kept for SEC-MALS (calculated about 52.1 kDa); source: E. coli, purified (Ni-agarose, Superdex 200); not shown: His6, N-terminal, kept
stoichiometry N [6]: 2

Reference: paper PMC8567228 (EMBO Reports, 2021)
